{"source": "the nanobody polyreactivity screen of Harvey et al. (2022)"}
{"experiment": "yeast display, Sf9 membrane polyspecificity reagent, FACS + sequencing; frameworks hold sequencing errors", "in_short": "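A synthetic nanobody library was expressed on Saccharomyces cerevisiae BJ5465 by galactose induction for 36–48 hours. The library was stained for 1 hour at 4 °C with 10% biotinylated, detergent-solubilized Sf9 membrane reagent and enriched with streptavidin microbeads before FACS. Low and high (top ~1%) gates were set on anti-HA fluorescence for expression and streptavidin fluorescence for reagent binding, and each polyreactivity label reflects the gate of origin.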"}
{"sequence": "QVQLVETGRGLVQAGGSLRLSCAASGSTFWPNAMGWYRQAPGKDRELVAAITSGGGTKYADSVKGRFTISRDNAKNTVYLQMNSLKPEDTAVYYCAKRKGDRGAWNHAYGWEDVDYWGQGTQVTVSS", "polyreactivity (PSR sort gate)": "low polyreactivity"}
{"sequence": "QVQLVEYGGGLVQAGGSLRLSCAASGRIFNYYAMGWYRQAPGKEREFVAAITRSGGRTYYADSVKGRFTISRDNAKNTVYLQMNILKPEDTAVYYCAAPYGTYAYDYSGQGTQVTVSS", "polyreactivity (PSR sort gate)": "high polyreactivity"}
{"sequence": "QVQLVESGGGIVQAGGSLRLSCDASGSIFNYYTMGWYRQEPGKERELVAAISYRGGRTYYADSVKGRFTISRDNAKNTVYLQMNSLKPEDTAVYYCAAGWLLYVFFPREYYYWGQGTQVTVSS", "polyreactivity (PSR sort gate)": "high polyreactivity"}
{"sequence": "QVQLVESGGGLVQAGGSLRLSCAASGSTFDYYDMGWYRQAPGKERELVAAISYSGTSTYYADSVKGRFTISRDNAKNTVYLQMNSLKPEDTAVYYCAKVFPDWYWYDYWGQGTQVTVSS", "polyreactivity (PSR sort gate)": "low polyreactivity"}
{"sequence": "QVQLVESGGGLVQAGGSLRLSCAASGSIFYYNAMGWYRQAPGKERELVAAMSWSGGSTYDADSVKGRFTISRDNAKHTVYLQMNSLKPEDTAVYYCRYYRRDEMDYWGQGTQVTVSS", "polyreactivity (PSR sort gate)": "high polyreactivity"}
{"sequence": "QVQLVETGGGLVQAGGSLRLSCAASGRTFYQYAMGWYRQAPGKERELVAGITFRGGSTNYADSVKGRFTISRDNAKNTVYLQMNSLKPEDTAVYYCAATVYGTVYKGRSQYEYGYWGQGTQVTVSS", "polyreactivity (PSR sort gate)": "high polyreactivity"}
{"sequence": "QVQLVESGGGLVQAGGSLSLSCAASGSIFRHNVMGWYIPAPGKERELVAAISGGGGRTYYADSVKGRFTISRDNAKNTDYLQMKSLKPEDTAVYYCYAYVGLSEGDYWGQGTHVTVSS", "polyreactivity (PSR sort gate)": "high polyreactivity"}
{"sequence": "QVQLVESGGGLVQAGGSLRLSCAASGSIFQKNAMGWYRQAPGKERELVAVITRGGTSTYYADSVKGRFTISRDNAKNTVYLQMNSLKAEDTAVYSCAAKADKRLDYWGQGTQVTVSS", "polyreactivity (PSR sort gate)": "low polyreactivity"}
{"sequence": "QVQLVESGGGLVQAGGSLRLICAASGIILGHKAMGWYRQAPGKERELVATITTRGGSTYYADSVKGRFTISRDNAKNTVYLQMNSLKPEDTAVFYCAARPYKSLHYWYDYWGQGTQVTVSS", "polyreactivity (PSR sort gate)": "low polyreactivity"}
{"sequence": "QVQLVESGGGLVQAGGSLRLSCAASGFIFYYNTMGWYRQAPGKERELVASITWSGDTTYYADSVKGRFTISRDNAKNTVYLQMNSLKPEDTAVYYCAAVHYYTYRRYDYWGQGTQVTVSS", "polyreactivity (PSR sort gate)": "low polyreactivity"}
{"sequence": "QVQLVESGGGLVQAGGSLRLSCAASGSIFQVYAMGWYRQAPGKEREFVAAISYSGGGTYYADSVKGRFTISRDNAKNSVYLQMNSLKPEDTAVYYCAADVSGWEYDYWGQGTQVTVSS", "polyreactivity (PSR sort gate)": "low polyreactivity"}
{"sequence": "KVQLVESGGGLVQAGGSLRLSCAASGYIFSYYAMGWYRQAPGKERELVAAITASGGRTYYADSVKGRFTISRDNAKNTVYLQMNSQKPEDTAVYYCARASGIILQGQLVRWYRYNYLGQGTQVTVSS", "polyreactivity (PSR sort gate)": "high polyreactivity"}
{"sequence": "QVQLVESGGGLVQAGGSLRLSCAASGYIFGPYAMGWYRQAPGKERELVAAITWRGGRTYADSVKGRFTISRDNAKNTVYLQMNSLKPEDTAVYFCATETGYSPFVYYSGRYGYWGQGTQVNVSS", "polyreactivity (PSR sort gate)": "high polyreactivity"}
{"sequence": "QVQLLESGGGLVQAGGSLRLSCAASGSNFYVNAMGWYRQAPGKERELVAAITSTGTTHYADSVKGRFTISRDNAKNTDYLHMNSLKPEDTAVYYCAAYSRYQSRRYYYWGQGTQVTVSS", "polyreactivity (PSR sort gate)": "high polyreactivity"}
{"sequence": "QVQLVESGGGLVQAGGSLRLSCAASGFTFNYNAMGWYRQAPGKERELVAAISRSGGRTYYADSVKGRFTISRDNAKNTVYLQMNSLKPEDTAVYYCAADSRTNGYDYWGQGTQVTVSS", "polyreactivity (PSR sort gate)": "high polyreactivity"}
{"sequence": "QVQLVESGGGLDQAGGSLRLSCAASGSTLGRYTMGWYRQAPGKERELVAAITRGGRTNYADSVKGRFTISRDNAKNTVYLQMNSLKPEDTAVYYCAKLYRYGDYDYWGQGTQVTVSS", "polyreactivity (PSR sort gate)": "high polyreactivity"}
{"sequence": "QVQLVESVGGLVQAGGSLRLSCADSGLTFVDYAMGWYRQAPGKERELVAAITSSGGSITYYADSVKGRFTISRDNAKNTVYLQMKSLKPEDTAVYYCNADYGIYTDSFRGPDYESRGQGTQVTVSS", "polyreactivity (PSR sort gate)": "low polyreactivity"}
{"sequence": "QVQLLESGGGLVQAGGSLRLSCAASGRTFHFNAMGWYRKAPWKERELVAAITNSGGRTSYADSVKGRFTISRDNAKNTVYLQMNSLKPEDTAVYYCNVEVTYSSGKYDYWGQGTQVTVSS", "polyreactivity (PSR sort gate)": "low polyreactivity"}
{"sequence": "QVQLVESGGGLVQAGGSLRLSCAASGRTFPRYTMGWYRPAPGKERELVAASATGGSTYYADSVKGRFTISRDNAKNTVYLQMNSLKPEDTAVYYCAARPYSNRYVLGVYYWGQGTQVTVSS", "polyreactivity (PSR sort gate)": "high polyreactivity"}
{"sequence": "QVQLVESGGALVQAGGSLRLSCAASGLIFTAYAMGWYRQAPGKERELVAAIDWRGGSTSYADSVKGRFTISRDTAKNTVYLQMNSLKPEDTAVYYCAADYYSKYVRFGYWGQGTQVTVSS", "polyreactivity (PSR sort gate)": "high polyreactivity"}
{"sequence": "QVQLLESGGGLVQAGGSLRLSCAASGRTFEKNAMGWYRQAPGNERELVASITSVGSTDYADSVKGSFTISRDNAKNTVYLQMNSLKPEDNAVYYCAKTLGSQNYDFDYWGQGTQVNVSS", "polyreactivity (PSR sort gate)": "low polyreactivity"}
{"sequence": "QVQLVESCGGLVQAGGSLRLSCAASGFIFQPYAMGWYRQAPGTERELVAAITSRGGRTYYADSVKGRFTISRDNAKNTVYLQMNSLKPEDTAVYSCNAVIYACEYYYWGQGTQVTVSS", "polyreactivity (PSR sort gate)": "low polyreactivity"}
{"sequence": "QVQLVESGGGLVQAGGSLRLSCAASGYTFVNYAMGWYRQAPGKEREFVAAISRSGGSTYYADSVKGRFTISRDNAKNTVYLQMNSLKPEDTAVYYCALRGYPPYNYYYWGQGTQVTVSS", "polyreactivity (PSR sort gate)": "high polyreactivity"}
{"sequence": "QVQLVESGGGLVQAGGSLRLSCSASGRTFRGNAMGWSRHAPGKEREMVAAITSSGGSTYYADSVKGRFTISRDNAKNNVHLKMNSLKPEDTAVYYCAKTYVVPQYDYDYWGQGTQVTVSS", "polyreactivity (PSR sort gate)": "low polyreactivity"}
{"sequence": "QVQLVESGGGLVQAGGSLRISCAASARIFQVYGMGWYRQAPGKERELVASITYRGGSTYYADSVKGRFTISRDNAKNNVDLQMNSLKPEDTAVYYCAADGAFYASTEMDYWGQGTQVTVSS", "polyreactivity (PSR sort gate)": "low polyreactivity"}
{"sequence": "QVQLVESGAGLVQAGGSLRLSCAASGFIFARYAMGWSRQAPGKERELVAAITRGGGSTYYADSVKGRFTISRDTAKNTVYLQMNSLKPEDTAVYYCAAENGALVTYGYWGQGTQVTVSS", "polyreactivity (PSR sort gate)": "high polyreactivity"}
{"sequence": "QVQLVESGGGLVQAGGSLRLSCASSGSTLRSYAMGWYRQAPGKERELVAAIDWDGGRTYYADSVKGRFTISRDNAKNTVYIQMNSLKPEDTAVYYCNTSAGWSNGKDEGDFYSGFDYWVQGTQVTVSS", "polyreactivity (PSR sort gate)": "low polyreactivity"}
{"sequence": "QVQLVESGGALVQAGGSLRLSSAASVSIFTINAMGWYRQAPGKERELVAAISWSGAHTYYADSVKGRFTISRDNAKNTVYVQMNSLKPEDTAVYYCATGYNYLDRNTGYVHRFDYWGQGTQVTVSS", "polyreactivity (PSR sort gate)": "low polyreactivity"}
{"sequence": "QVQLVESGGGLVQAGGSLRLSCAASGLTFYYYAMGWYRQAPGKERELVAAITGSGGRTSYADSVKGRFTISRDNAKNTVYLQMNSLKPEDTAVYYCAARNKRRGYPWQGQQKVLNFDYWGQGTQVTVSS", "polyreactivity (PSR sort gate)": "high polyreactivity"}
{"sequence": "QVQLEESGGGLVQAGGSLRLSCAASGRIFSGYAMGWYRQAPGIERELVAAIDSVGDTYYADSVKVRFTISRDNAKNTVYLQMNSLKPEDTAVYYCAAERTVRMVLSPTDEMDYWGQGTQVNVSS", "polyreactivity (PSR sort gate)": "low polyreactivity"}
